From patent US20140011734A1 (Sanofi, published 2014)
Starred links: 1 amine or outer side, 2 acyl side, 3 side chain; linkers in the order of their positions; H or OH if unused. Non-standard residues stand in square brackets, D forms with d. 4‑aminomethylphenylacetic acid = (4-aminomethyl-phenyl)-acetic acid ring linker, O=C(Cc1ccc(CN[*:1])cc1)[*:2]; Chg = N[C@H](C(=O)O)C1CCCCC1; Nle = CCCC[C@H](N)C(=O)O; Orn = NCCC[C@H](N)C(=O)O; Nva = CCC[C@H](N)C(=O)O; Dap = NC[C@H](N)C(=O)O; Ahp = NCCCCCCC(=O)O; Ahx = NCCCCCC(=O)O; GABA = NCCCC(=O)O; βAla = NCCC(=O)O

B1: Cyclo[Leu-His-Asn-Leu-NH-(CH2)6-CO-Thr-Glu-Arg-Met-Nva] (peptide)
peptide: cyclo(LHNL[Ahp]TERM[Nva])
SMILES: CCC[C@@H]1NC(=O)[C@H](CCSC)NC(=O)[C@H](CCCNC(=N)N)NC(=O)[C@H](CCC(=O)O)NC(=O)[C@H]([C@@H](C)O)NC(=O)CCCCCCNC(=O)[C@H](CC(C)C)NC(=O)[C@H](CC(N)=O)NC(=O)[C@H](Cc2c[nH]cn2)NC(=O)[C@H](CC(C)C)NC1=O
B2: Cyclo[Leu-His-Asn-Leu-NH-X4-X3-X2-X1-CO-Thr-Glu-Arg-Met-Ala] of example 3 (peptide)
peptide: cyclo(LHNL[4‑aminomethylphenylacetic acid]TERMA)
SMILES: CSCC[C@@H]1NC(=O)[C@H](CCCNC(=N)N)NC(=O)[C@H](CCC(=O)O)NC(=O)[C@H]([C@@H](C)O)NC(=O)Cc2ccc(cc2)CNC(=O)[C@H](CC(C)C)NC(=O)[C@H](CC(N)=O)NC(=O)[C@H](Cc2c[nH]cn2)NC(=O)[C@H](CC(C)C)NC(=O)[C@H](C)NC1=O
B3: Cyclo[Leu-Orn-Asn-Leu-NH-(CH2)6-CO-Thr-Glu-Arg-Met-Ala] (peptide)
peptide: cyclo(L[Orn]NL[Ahp]TERMA)
SMILES: CSCC[C@@H]1NC(=O)[C@H](CCCNC(=N)N)NC(=O)[C@H](CCC(=O)O)NC(=O)[C@H]([C@@H](C)O)NC(=O)CCCCCCNC(=O)[C@H](CC(C)C)NC(=O)[C@H](CC(N)=O)NC(=O)[C@H](CCCN)NC(=O)[C@H](CC(C)C)NC(=O)[C@H](C)NC1=O
B4: Cyclo[Leu-His-Asn-Leu-NH-(CH2)3-CO-Asn-Thr-Glu-Arg-Met-Ala] (peptide)
peptide: cyclo(LHNL[GABA]NTERMA)
SMILES: CSCC[C@@H]1NC(=O)[C@H](CCCNC(=N)N)NC(=O)[C@H](CCC(=O)O)NC(=O)[C@H]([C@@H](C)O)NC(=O)[C@H](CC(N)=O)NC(=O)CCCNC(=O)[C@H](CC(C)C)NC(=O)[C@H](CC(N)=O)NC(=O)[C@H](Cc2c[nH]cn2)NC(=O)[C@H](CC(C)C)NC(=O)[C@H](C)NC1=O
B5: Cyclo[Leu-His-Asn-Leu-NH-(CH2)2-CO-Ala-Thr-Glu-Arg-Met-Ala] (peptide)
peptide: cyclo(LHNL[βAla]ATERMA)
SMILES: CSCC[C@@H]1NC(=O)[C@H](CCCNC(=N)N)NC(=O)[C@H](CCC(=O)O)NC(=O)[C@H]([C@@H](C)O)NC(=O)[C@H](C)NC(=O)CCNC(=O)[C@H](CC(C)C)NC(=O)[C@H](CC(N)=O)NC(=O)[C@H](Cc2c[nH]cn2)NC(=O)[C@H](CC(C)C)NC(=O)[C@H](C)NC1=O
B6: Cyclo[Leu-His-Asn-Leu-NH-(CH2)5-CO-Thr-Glu-Arg-Met-Ala] (peptide)
peptide: cyclo(LHNL[Ahx]TERMA)
SMILES: CSCC[C@@H]1NC(=O)[C@H](CCCNC(=N)N)NC(=O)[C@H](CCC(=O)O)NC(=O)[C@H]([C@@H](C)O)NC(=O)CCCCCNC(=O)[C@H](CC(C)C)NC(=O)[C@H](CC(N)=O)NC(=O)[C@H](Cc2c[nH]cn2)NC(=O)[C@H](CC(C)C)NC(=O)[C@H](C)NC1=O
B7: Cyclo[Leu-D-His-Asn-Leu-NH-(CH2)6-CO-Thr-Glu-Arg-Met-Ala] (peptide)
peptide: cyclo(L[dH]NL[Ahp]TERMA)
SMILES: CSCC[C@@H]1NC(=O)[C@H](CCCNC(=N)N)NC(=O)[C@H](CCC(=O)O)NC(=O)[C@H]([C@@H](C)O)NC(=O)CCCCCCNC(=O)[C@H](CC(C)C)NC(=O)[C@H](CC(N)=O)NC(=O)[C@@H](Cc2c[nH]cn2)NC(=O)[C@H](CC(C)C)NC(=O)[C@H](C)NC1=O
B8: Cyclo[Ile-His-Asn-Leu-NH-(CH2)6-CO-Thr-Glu-Arg-Met-Ala] (peptide)
peptide: cyclo(IHNL[Ahp]TERMA)
SMILES: CC[C@H](C)[C@@H]1NC(=O)[C@H](C)NC(=O)[C@H](CCSC)NC(=O)[C@H](CCCNC(=N)N)NC(=O)[C@H](CCC(=O)O)NC(=O)[C@H]([C@@H](C)O)NC(=O)CCCCCCNC(=O)[C@H](CC(C)C)NC(=O)[C@H](CC(N)=O)NC(=O)[C@H](Cc2c[nH]cn2)NC1=O
B9: Cyclo[Leu-His-Asn-Leu-NH-(CH2)6-CO-Asp-Glu-Arg-Met-Ala] (peptide)
peptide: cyclo(LHNL[Ahp]DERMA)
SMILES: CSCC[C@@H]1NC(=O)[C@H](CCCNC(=N)N)NC(=O)[C@H](CCC(=O)O)NC(=O)[C@H](CC(=O)O)NC(=O)CCCCCCNC(=O)[C@H](CC(C)C)NC(=O)[C@H](CC(N)=O)NC(=O)[C@H](Cc2c[nH]cn2)NC(=O)[C@H](CC(C)C)NC(=O)[C@H](C)NC1=O
B10: Cyclo[Leu-His-Asn-Leu-NH-(CH2)6-CO-His-Glu-Arg-Met-Ala] (peptide)
peptide: cyclo(LHNL[Ahp]HERMA)
SMILES: CSCC[C@@H]1NC(=O)[C@H](CCCNC(=N)N)NC(=O)[C@H](CCC(=O)O)NC(=O)[C@H](Cc2c[nH]cn2)NC(=O)CCCCCCNC(=O)[C@H](CC(C)C)NC(=O)[C@H](CC(N)=O)NC(=O)[C@H](Cc2c[nH]cn2)NC(=O)[C@H](CC(C)C)NC(=O)[C@H](C)NC1=O
B11: Cyclo[Leu-His-Asn-Leu-NH-(CH2)6-CO-Ser-Glu-Arg-Met-Ala] (peptide)
peptide: cyclo(LHNL[Ahp]SERMA)
SMILES: CSCC[C@@H]1NC(=O)[C@H](CCCNC(=N)N)NC(=O)[C@H](CCC(=O)O)NC(=O)[C@H](CO)NC(=O)CCCCCCNC(=O)[C@H](CC(C)C)NC(=O)[C@H](CC(N)=O)NC(=O)[C@H](Cc2c[nH]cn2)NC(=O)[C@H](CC(C)C)NC(=O)[C@H](C)NC1=O
B12: Cyclo[Leu-His-Asn-Leu-NH-(CH2)6-CO-Thr-Glu-Arg-Met-Arg] (peptide)
peptide: cyclo(LHNL[Ahp]TERMR)
SMILES: CSCC[C@@H]1NC(=O)[C@H](CCCNC(=N)N)NC(=O)[C@H](CCC(=O)O)NC(=O)[C@H]([C@@H](C)O)NC(=O)CCCCCCNC(=O)[C@H](CC(C)C)NC(=O)[C@H](CC(N)=O)NC(=O)[C@H](Cc2c[nH]cn2)NC(=O)[C@H](CC(C)C)NC(=O)[C@H](CCCNC(=N)N)NC1=O
B13: Cyclo[Leu-His-Asn-Leu-NH-(CH2)6-CO-Leu-Glu-Arg-Met-Ala] (peptide)
peptide: cyclo(LHNL[Ahp]LERMA)
SMILES: CSCC[C@@H]1NC(=O)[C@H](CCCNC(=N)N)NC(=O)[C@H](CCC(=O)O)NC(=O)[C@H](CC(C)C)NC(=O)CCCCCCNC(=O)[C@H](CC(C)C)NC(=O)[C@H](CC(N)=O)NC(=O)[C@H](Cc2c[nH]cn2)NC(=O)[C@H](CC(C)C)NC(=O)[C@H](C)NC1=O
B14: Cyclo[Leu-His-Asn-Leu-NH-(CH2)6-CO-Thr-Glu-Arg-Ile-Ala] (peptide)
peptide: cyclo(LHNL[Ahp]TERIA)
SMILES: CC[C@H](C)[C@@H]1NC(=O)[C@H](CCCNC(=N)N)NC(=O)[C@H](CCC(=O)O)NC(=O)[C@H]([C@@H](C)O)NC(=O)CCCCCCNC(=O)[C@H](CC(C)C)NC(=O)[C@H](CC(N)=O)NC(=O)[C@H](Cc2c[nH]cn2)NC(=O)[C@H](CC(C)C)NC(=O)[C@H](C)NC1=O
B15: Cyclo[Leu-His-Asn-Leu-NH-(CH2)6-CO-Thr-Glu-Arg-Met-Gln] (peptide)
peptide: cyclo(LHNL[Ahp]TERMQ)
SMILES: CSCC[C@@H]1NC(=O)[C@H](CCCNC(=N)N)NC(=O)[C@H](CCC(=O)O)NC(=O)[C@H]([C@@H](C)O)NC(=O)CCCCCCNC(=O)[C@H](CC(C)C)NC(=O)[C@H](CC(N)=O)NC(=O)[C@H](Cc2c[nH]cn2)NC(=O)[C@H](CC(C)C)NC(=O)[C@H](CCC(N)=O)NC1=O
B16: Cyclo[Leu-His-Asn-Leu-NH-(CH2)6-CO-Thr-Glu-Lys-Met-Ala] (peptide)
peptide: cyclo(LHNL[Ahp]TEKMA)
SMILES: CSCC[C@@H]1NC(=O)[C@H](CCCCN)NC(=O)[C@H](CCC(=O)O)NC(=O)[C@H]([C@@H](C)O)NC(=O)CCCCCCNC(=O)[C@H](CC(C)C)NC(=O)[C@H](CC(N)=O)NC(=O)[C@H](Cc2c[nH]cn2)NC(=O)[C@H](CC(C)C)NC(=O)[C@H](C)NC1=O
B17: Cyclo[Leu-His-Asn-Leu-NH-(CH2)6-CO-Thr-Glu-Dpr-Met-Ala] (peptide)
peptide: cyclo(LHNL[Ahp]TE[Dap]MA)
SMILES: CSCC[C@@H]1NC(=O)[C@H](CN)NC(=O)[C@H](CCC(=O)O)NC(=O)[C@H]([C@@H](C)O)NC(=O)CCCCCCNC(=O)[C@H](CC(C)C)NC(=O)[C@H](CC(N)=O)NC(=O)[C@H](Cc2c[nH]cn2)NC(=O)[C@H](CC(C)C)NC(=O)[C@H](C)NC1=O
B18: Cyclo[Nle-His-Asn-Leu-NH-(CH2)6-CO-Thr-Glu-Arg-Met-Ala] (peptide)
peptide: cyclo([Nle]HNL[Ahp]TERMA)
SMILES: CCCC[C@@H]1NC(=O)[C@H](C)NC(=O)[C@H](CCSC)NC(=O)[C@H](CCCNC(=N)N)NC(=O)[C@H](CCC(=O)O)NC(=O)[C@H]([C@@H](C)O)NC(=O)CCCCCCNC(=O)[C@H](CC(C)C)NC(=O)[C@H](CC(N)=O)NC(=O)[C@H](Cc2c[nH]cn2)NC1=O

Target: T1, blood platelet receptor glycoprotein Ib-IX-V complex (GPIb) (human, UniProt P07359 17-652; P13224 26-206; P14770 17-177; P40197 17-560)
T1 construct: whole, on cells; also called GPIb complex; GPIb receptor
Experiment: inhibition of static adhesion of human platelets to coated vWF-A1; grade B = IC50 between 1 µM and 10 µM
Protocol: Platelet rich plasma was carefully transferred again to fresh containers, PGE1 (0.5 μg/ml, Sigma) was added and the suspension was allowed to rest for 5 min. This was followed by another centrifugation step for 15 min at 360 g. The supernatant was discarded and the cell pellets were carefully resuspended in tyrode buffer (NaCl, 137 mM (Sigma S-3014); KCl, 2.7 mM (Sigma P-9541); NaHCO₃,12 mM (Riedel deHaen 31437); NaH₂PO₄×2H₂O, 0.36 mM (Merck 6345); MgCl₂×6 H₂O, 1 mM (Sigma M-2670); Hepes, 10 mM (Sigma H-1016); glucose, 5.6 mM (Merck 8342); BSA, 0.1% (Sigma A7906)), and PGE1 (0.25 μg/ml) was added. After 5 min of resting the suspension was spun down for 15 min at 300 g. The supernatant was discarded and the pellets were carefully resuspended in TBS buffer (Tris-HCl, 50 mM (Fluka 93371); NaCl, 120 mM (Sigma S-3014); KCl, 2.7 mM (Sigma P-9541); CaCl₂, 0.05 mM (Sigma C-3306); MgCl₂×6 H₂O, 2 mM (Sigma M-2670); BSA, 0.1% (Sigma A7906); pH 7.4). The platelet count was adjusted to 2×10⁵ cells/μl, and the suspensions from individual donors were pooled at this stage. The platelets were allowed to rest for 30 min at room temperature before calcein AM (2.5 μM per 2×10⁵ cells/pi (Molecular Probes C-3099)) was added. This was followed by 15 min incubation in the dark. Cells were diluted to 5×10⁴ cells/μl and ReoPro (3 μg/ml (Centocor B. V., Leiden, N L)) was added, followed by a 10 min incubation period in the dark before adding the platelets to the assay plates.
96 well plates (Greiner hb, black, clear bottom, F, 655097) were coated with human recombinant vWF-A1 domain (1.5 μg/well, AA 475-706, expressed in E. coli) in Tris buffer (pH 7.4; Tris-HCl, 25 mM; NaCl, 150 mM) and incubated for 1 h at room temperature. After washing the wells 3× with TBS, blocking buffer (TBS with 5% BSA) was added followed by an incubation for 1 h. The wells were washed again 3× with TBS before 200 μl TBS were added to each well, preventing them from drying out. TBS was flicked out and serial dilutions of the test compound were added. The washed and calcein AM labeled thrombocytes were added to the wells (2.5×10⁶ cells/well). Following an adhesion period of 1.5 h in the dark the wells were washed 3× with TBS. Measurement of fluorescence per well was performed in a SpectraMax M5 reader (Molecular Devices). From the raw data % inhibition and IC₅₀ values were calculated.

T1 sequence (P07359 17-652, chain 1 of 4): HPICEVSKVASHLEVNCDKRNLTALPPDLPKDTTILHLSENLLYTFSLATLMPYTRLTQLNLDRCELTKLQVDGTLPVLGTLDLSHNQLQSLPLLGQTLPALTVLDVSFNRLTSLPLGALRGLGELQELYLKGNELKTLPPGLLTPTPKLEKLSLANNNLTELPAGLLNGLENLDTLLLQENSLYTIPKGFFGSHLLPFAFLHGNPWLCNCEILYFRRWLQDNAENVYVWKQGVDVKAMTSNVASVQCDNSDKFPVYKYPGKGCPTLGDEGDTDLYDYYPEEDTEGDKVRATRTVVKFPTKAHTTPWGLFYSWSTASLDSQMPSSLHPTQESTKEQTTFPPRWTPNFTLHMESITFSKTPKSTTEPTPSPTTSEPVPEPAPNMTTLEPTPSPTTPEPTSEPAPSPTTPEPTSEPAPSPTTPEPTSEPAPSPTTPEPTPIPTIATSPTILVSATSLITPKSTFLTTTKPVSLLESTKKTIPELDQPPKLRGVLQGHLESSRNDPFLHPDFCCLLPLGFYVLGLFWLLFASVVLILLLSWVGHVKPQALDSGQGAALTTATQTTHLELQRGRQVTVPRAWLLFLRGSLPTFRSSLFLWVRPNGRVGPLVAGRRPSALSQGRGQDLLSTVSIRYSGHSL
T1 sequence (P13224 26-206, chain 2 of 4): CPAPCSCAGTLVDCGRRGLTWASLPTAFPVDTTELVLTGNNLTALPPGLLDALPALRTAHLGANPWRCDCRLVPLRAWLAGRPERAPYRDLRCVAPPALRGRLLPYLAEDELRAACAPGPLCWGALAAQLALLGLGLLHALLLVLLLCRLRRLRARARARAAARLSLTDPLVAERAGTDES
T1 sequence (P14770 17-177, chain 3 of 4): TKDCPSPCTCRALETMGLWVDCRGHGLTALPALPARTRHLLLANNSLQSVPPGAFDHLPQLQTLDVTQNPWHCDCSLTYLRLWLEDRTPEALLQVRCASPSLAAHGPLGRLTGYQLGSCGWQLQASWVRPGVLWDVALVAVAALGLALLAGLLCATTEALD
T1 sequence (P40197 17-560, chain 4 of 4): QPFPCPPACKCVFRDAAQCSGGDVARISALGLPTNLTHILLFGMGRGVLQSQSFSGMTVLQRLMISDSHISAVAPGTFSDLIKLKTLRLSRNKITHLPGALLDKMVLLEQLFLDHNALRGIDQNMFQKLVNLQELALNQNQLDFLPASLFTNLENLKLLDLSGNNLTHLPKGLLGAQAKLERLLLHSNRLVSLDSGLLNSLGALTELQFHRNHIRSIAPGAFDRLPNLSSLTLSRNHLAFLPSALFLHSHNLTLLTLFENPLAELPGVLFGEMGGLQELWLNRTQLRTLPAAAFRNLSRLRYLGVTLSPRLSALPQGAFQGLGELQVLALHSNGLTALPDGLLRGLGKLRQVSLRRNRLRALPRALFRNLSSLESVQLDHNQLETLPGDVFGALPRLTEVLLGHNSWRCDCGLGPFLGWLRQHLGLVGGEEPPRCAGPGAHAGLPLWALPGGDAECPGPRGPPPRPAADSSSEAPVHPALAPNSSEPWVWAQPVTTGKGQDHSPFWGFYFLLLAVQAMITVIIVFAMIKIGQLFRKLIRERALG

Binder | IC50 [µM]
B1 | 1 to 10
B2 | 1 to 10
B3 | 1 to 10
B4 | 1 to 10
B5 | 1 to 10
B6 | 1 to 10
B7 | 1 to 10
B8 | 1 to 10
B9 | 1 to 10
B10 | 1 to 10
B11 | 1 to 10
B12 | 1 to 10
B13 | 1 to 10
B14 | 1 to 10
B15 | 1 to 10
B16 | 1 to 10
cyclo([Chg]HNL[Ahp]TERMA) [Cyclo[Chg-His-Asn-Leu-NH-(CH2)6-CO-Thr-Glu-Arg-Met-Ala]] | 1 to 10
B17 | 1 to 10
B18 | 1 to 10
